Assays:
Human TNFR1/Fc [1] = target: T1, Human TNFR1/Fc (human, UniProt P19438 30-211); test: SPR
T1 chain: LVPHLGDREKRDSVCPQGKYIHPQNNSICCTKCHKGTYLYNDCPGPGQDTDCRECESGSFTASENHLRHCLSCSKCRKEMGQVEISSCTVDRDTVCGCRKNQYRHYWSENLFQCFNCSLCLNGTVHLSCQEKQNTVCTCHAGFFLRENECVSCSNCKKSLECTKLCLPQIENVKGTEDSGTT

Human TNFR1/Fc [2] = target: T1, Human TNFR1/Fc; test: SPR

B1: recombinant HP986 (natural protein)
chain: METFFSLHVPNRRIKQNGIIDEKSLEKIQERKNLSSLLYEHRARIIPLYKRINENHAKNKTINICENNLKLFYKDHQVCVNIDKKEIKLRYSEDEDDFRKYIIGGWFEEYIYCELLELLDKQVICDLRLNMILGVGNTNATQGDKHPIYTELDIAFSDGKNLYVAECKSGELKNKGVLAALSADAQIFGGANAKCILISIDGNLGQVLQEKVKILNIEFIFKYFKKNIENYINNSRR
- Kd (Human TNFR1/Fc [1]): 72.1 nM
- Ka (Human TNFR1/Fc [2]): 1.39e+07 M⁻¹

— paper PMC3137634 (2011)
